Data published in US20260184804A1.

How the values were obtained:
[1] = target: Apical domain construct of hTfR1 displayed on M13 phage (human); assay: Seqitope mutagenic scanning of the phage-displayed apical domain of hTfR1
[2] = target: His-tagged ectodomain of cynomolgus transferrin receptor 1 (cTfR1), amino acids R121-F760 (cynomolgus monkey); assay: SPR; binder captured on protein A, receptor as analyte 0.156-40 nM; no hTf
[3] = target: His-tagged ectodomain of human transferrin receptor 1 (hTfR1), amino acids R121-F760 (human) (UniProt P02786); assay: as above
His-tagged ectodomain of human transferrin receptor 1 (hTfR1), amino acids R121-F760 (human), sequence (P02786 other isoform, or with tags, fused parts or gaps limits assumed): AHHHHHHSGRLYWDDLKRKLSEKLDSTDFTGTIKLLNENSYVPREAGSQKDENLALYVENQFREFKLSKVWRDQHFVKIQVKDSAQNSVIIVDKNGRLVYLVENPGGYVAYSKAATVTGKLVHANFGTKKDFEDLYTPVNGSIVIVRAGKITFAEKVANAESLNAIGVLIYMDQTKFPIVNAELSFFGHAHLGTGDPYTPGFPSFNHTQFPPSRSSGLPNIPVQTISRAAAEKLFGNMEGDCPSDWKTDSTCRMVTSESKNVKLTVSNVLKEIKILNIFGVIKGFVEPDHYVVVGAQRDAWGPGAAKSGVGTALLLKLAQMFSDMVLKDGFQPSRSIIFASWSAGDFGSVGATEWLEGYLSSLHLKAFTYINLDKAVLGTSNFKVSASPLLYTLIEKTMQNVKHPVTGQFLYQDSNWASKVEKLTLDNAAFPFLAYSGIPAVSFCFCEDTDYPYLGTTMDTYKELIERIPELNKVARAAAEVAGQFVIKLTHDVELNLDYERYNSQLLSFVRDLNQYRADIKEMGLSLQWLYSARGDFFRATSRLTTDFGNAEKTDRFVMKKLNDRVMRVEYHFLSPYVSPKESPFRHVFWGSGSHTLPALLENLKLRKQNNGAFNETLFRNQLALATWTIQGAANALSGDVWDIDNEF

[4] = target: His-tagged ectodomain of cynomolgus transferrin receptor 1 (cTfR1), amino acids R121-F760 (cynomolgus monkey); assay: SPR; binder captured on protein A, receptor as analyte 0.156-40 nM; with 250 nM hTf
[5] = target: His-tagged ectodomain of human transferrin receptor 1 (hTfR1), amino acids R121-F760 (human) (UniProt P02786); assay: as above
[6] = target: His-tagged ectodomain of human transferrin receptor 1 (hTfR1), amino acids R121-F760 (human) (UniProt P02786); assay: SPR (Biacore T200, single-cycle); hTfR1 captured on amine-coupled hTf, binder as analyte 6.25-100 nM

His-tagged ectodomain of cynomolgus transferrin receptor 1 (cTfR1), amino acids R121-F760 (cynomolgus monkey), sequence (Q5RDH6 other isoform, or with tags, fused parts or gaps limits assumed): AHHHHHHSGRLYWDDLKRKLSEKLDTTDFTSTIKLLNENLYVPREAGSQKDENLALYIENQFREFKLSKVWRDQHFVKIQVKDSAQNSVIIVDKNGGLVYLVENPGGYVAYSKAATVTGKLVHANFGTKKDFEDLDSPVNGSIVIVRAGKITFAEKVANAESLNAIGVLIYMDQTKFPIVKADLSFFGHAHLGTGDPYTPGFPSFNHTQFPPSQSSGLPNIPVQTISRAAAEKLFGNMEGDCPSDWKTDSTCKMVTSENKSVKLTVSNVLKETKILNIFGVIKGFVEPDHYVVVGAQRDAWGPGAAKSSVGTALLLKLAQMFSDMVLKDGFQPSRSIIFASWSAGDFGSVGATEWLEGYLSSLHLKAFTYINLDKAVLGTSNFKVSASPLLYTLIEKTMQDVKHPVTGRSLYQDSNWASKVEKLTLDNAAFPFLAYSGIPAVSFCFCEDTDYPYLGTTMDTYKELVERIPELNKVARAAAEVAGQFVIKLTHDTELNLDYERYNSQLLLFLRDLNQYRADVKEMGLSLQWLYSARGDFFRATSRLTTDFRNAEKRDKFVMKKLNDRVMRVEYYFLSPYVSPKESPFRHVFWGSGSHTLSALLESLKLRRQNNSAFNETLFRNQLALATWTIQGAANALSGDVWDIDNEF

Substance: Benchmark antibody 128.1 (BA1), full length human IgG1
- Binding Ratio (BR) of residue D242 [1]: 3.56
- Binding Ratio (BR) of residue E369 [1]: 6.88
- Binding Ratio (BR) of residue G351 [1]: 3.27
- Binding Ratio (BR) of residue L246 [1]: 3.36
- Binding Ratio (BR) of residue P249 [1]: 2.64
- Binding Ratio (BR) of residue R364 [1]: 2.64
- Binding Ratio (BR) of residue V366 [1]: 4.15
- Kd [2]: 0.414 nM
- koff [2]: 8.85e-05 s⁻¹
- kon [2]: 214000 M⁻¹ s⁻¹
- Kd [3]: 0.101 nM
- koff [3]: 8.87e-05 s⁻¹
- kon [3]: 882000 M⁻¹ s⁻¹
- Kd [4]: 0.33 nM
- koff [4]: 8e-05 s⁻¹
- kon [4]: 242000 M⁻¹ s⁻¹
- Kd [5]: 0.0834 nM
- koff [5]: 5.77e-05 s⁻¹
- kon [5]: 692000 M⁻¹ s⁻¹
- Kd [6]: 0.0199 nM
- koff [6]: 5.63e-05 s⁻¹
- kon [6]: 2.82e+06 M⁻¹ s⁻¹
